This is an account of results in patent US20240336672A1 (INSTITUT PASTEUR, published 2024).

Assay [1] has as its target T1, SARS-CoV-2 S1 domain, Wuhan (SARS-CoV-2, UniProt P0DTC2 16-681). The experiment in a line: ELISA, coated antigen. In general terms: An ELISA detects its analyte on a solid surface through an enzyme-linked reagent.
Assay [2] has as its target T1, SARS-CoV-2 S1 domain, Wuhan. In words: SPR (Biacore), antibody immobilised. Background: Surface plasmon resonance follows binding to a sensor surface in real time, without labels.
Assay [3] concerns the target T2, SARS-CoV-2 spike, Wuhan strain, on virus or pseudotyped particles (SARS-CoV-2, UniProt P0DTC2 14-1273). In words: cell-based or functional assay.
Assay [4] has as its target T1, SARS-CoV-2 S1 domain, Wuhan. The experiment in a line: ELISA. The arrangement: unit not given beside the values.
For assay [5], the target named is SARS-CoV-2 RBD domain, Wuhan (SARS-CoV-2). The experiment in a line: ELISA. Details: unit not given beside the values.
For assay [6] the target is unchanged. In words: RBD-ACE2 competition ELISA.
The target is the same in assay [7]. In words: RBD-ACE2 competition ELISA. Details: unit not given beside the values.
In assay [8] the target is T1, SARS-CoV-2 S1 domain, Wuhan. The experiment in a line: ELISA.
Assay [9] shares this target. In words: SPR (Biacore), IgG immobilized, viral protein as analyte.
Assay [10] has the same target. In words: SPR (Biacore), antibody coupled to CM5 chip, viral protein as analyte.
Assay [11] has as its target T2, SARS-CoV-2 spike, Wuhan strain, on …. The experiment in a line: cell-based or functional assay. This is another data set of the same source.

B1: Cv2.1353 (recombinant human IgG1) (antibody, V domains shown)
VH: EVQLVESGGGLVQPGGSLRLSCAASGVTVSSNYMNWVRQAPGKGLEWVSVIYSGGSTFYADSVKGRFIISRDNSKNTLYLQMNSLKTEDTAVYYCARDLGPMGFDIWGQGTMVTVSS
VL: DIQMTQSPSFLSASVGDRVTITCRASQGISSYLAWYQQKPGKAPKLLIYAASTLQSGVPSRFSGSGSGTEFTLTISSLQPEDFATYYCQQLNSDPPVTFGPGTKVDIKR
In general, Kd refers to the free concentration of one partner at which half of the binding sites on the other are occupied at equilibrium, for simple one-to-one binding. B1: the “ELISA OD” value in assay [1] is 3.5 OD. In assay [2], the affinity, expressed as Kd, was 6 nM. In addition, in [3], the “PseudoNEUT (%)” value worked out at 100% and the “S-FuseNEUT (%)” value was determined as 100%.

B2: COV2-2196 (parental IgG1 version) (antibody, V domains shown)
VH: QMQLVQSGPEVKKPGTSVKVSCKASGFTFMSSAVQWVRQARGQRLEWIGWIVIGSGNTNYAQKFQERVTITRDMSTSTAYMELSSLRSEDTAVYYCAAPYCSSISCNDGFDIWGQGTMVTVSS
VL: not shown
In turn, B2 registered an AUC in [4] of 3.

B3: Cv2.5179 (recombinant human IgG1) (antibody, V domains shown)
VH: QVQLVQSGPEVKKPGTSVKVSCKASGFTFTSSAVQWVRQARGQRLEWIGWIVVGSGNTNYAQKFQERVTITRDMSTSTAYMELSSLRSEDTAVYYCAAPHCSSTSCYDAFDIWGQGTMVTVSS
VL: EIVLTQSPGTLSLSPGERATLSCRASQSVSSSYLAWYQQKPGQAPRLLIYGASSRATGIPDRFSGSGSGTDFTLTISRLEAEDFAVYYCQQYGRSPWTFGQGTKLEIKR
notes: also called Cv2.5179 IgG
For the molecule B3, the “AUC (Binding)” value in assay [5] came to 11. The “IC50 (read off the curve)” value in assay [6] is approximately 600 ng/mL. In addition, the “AUC (Blocking)” value in [7] was determined as 103.

B4: TIX (antibody, V domains shown)
VH: QMQLVQSGPEVKKPGTSVKVSCKASGFTFMSSAVQWVRQARGQRLEWIGWIVIGSGNTNYAQKFQERVTITRDMSTSTAYMELSSLRSEDTAVYYCAAPYCSSISCNDGFDIWGQGTMVTVSS
VL: not shown
notes: also called Tixagevimab
B4 registered an OD405nm in assay [8] of 3.3.

B5: Cv2.1169 (recombinant human IgG1) (antibody)
heavy: QVQLVQSGPEVKKPGTSVKVSCKASGFTFTTSAVQWVRQARGQRLEWIGWIVVGSGNTNYAQKFQERVTITRDMSTTTAYMELSSLRSEDTAVYYCAAPYCSGGTCLDGFDIWGQGTMVTVSSASTKGPSVFPLAPSSKSTSGGTAALGCLVKDYFPEPVTVSWNSGALTSGVHTFPAVLQSSGLYSLSSVVTVPSSSLGTQTYICNVNHKPSNTKVDKKVEPKSCDKTHTCPPCPAPELLGGPSVFLFPPKPKDTLMISRTPEVTCVVVDVSHEDPEVKFNWYVDGVEVHNAKTKPREEQYNSTYRVVSVLTVLHQDWLNGKEYKCKVSNKALPAPIEKTISKAKQPREPQVYTLPPSRDELTKNQVSLTCLVKGFYPSDIAVEWESNGQPENNYKTTPPVLDSDGSFFLYSKLTVDKSRWQQGNVFSCSVMHEALHNHYTQKSLSLSPGK
light: not shown
notes: also called Cv2.1169 IgG
A word on the koff: it is the rate constant with which the complex falls apart. By kon is commonly meant the second-order rate constant of association. Consider B5, for which, in assay [8], the OD405nm was 3.3. For the same molecule, the “ELISA OD” value in assay [1] came to 3.5 OD. Moreover, in assay [3], the “PseudoNEUT (%)” value amounted to 100% and the “S-FuseNEUT (%)” value is 95%. Further, in assay [9], the Kd worked out at 1.44 nM, the koff worked out at 0.000354 s⁻¹ and the kon is 246000 M⁻¹ s⁻¹. Besides, in [10], the Kd was less than 0.001 nM. In addition, in [11], the “Pseudoneutralization IC50” value is 3 ng/mL, the “Pseudoneutralization IC90” value is 12.4 ng/mL, the “S-Fuse neutralization IC50” value was determined as 1.5 ng/mL and the “S-Fuse neutralization IC90” value was determined as 3.5 ng/mL.

B6: ADG-2 (antibody, V domains shown)
VH: EVQLVESGGGLVKPGGSLRLSCAASGFTFSSYYMNWVRQAPGKGLEWVSSISEDGYSTYYPDSLKGRFTISRDSAKNSLYLQMNSLRADDTAVYYCARDFSGHTAWAGTGFEYWGQGTLVTVSS
VL: QSVLTQPPSVSGAPGQRITISCTGSSSNIGAGYDVHWYQQLPGTAPKLLIYGSSSRNSGVPDRFSGSKSGTSASLAITGLQAEDEADYYCQSYDSSLSVLYTFGTGTKVTVL
In [4], B6 yielded an AUC of 3.

B7: Adintrevimab (antibody, V domains shown)
VH: EVQLVESGGGLVKPGGSLRLSCAASGFTFSSYYMNWVRQAPGKGLEWVSSISEDGYSTYYPDSLKGRFTISRDSAKNSLYLQMNSLRADDTAVYYCARDFSGHTAWAGTGFEYWGQGTLVTVSS
VL: QSVLTQPPSVSGAPGQRITISCTGSSSNIGAGYDVHWYQQLPGTAPKLLIYGSSSRNSGVPDRFSGSKSGTSASLAITGLQAEDEADYYCQSYDSSLSVLYTFGTGTKVTVL
In turn, B7 came in with an OD405nm in [8] of 3.3.

B8: Cv2.3235 (recombinant human IgG1) (antibody, V domains shown)
VH: EVQLVESGGGLIQPGGSLRLSCAASGFTVSRNYMSWVRQAPGKGLEWVSVIYSGGSTFYADSVKGRFTISRDNSKNTLYLQMNSLRAEDTAVYYCARDGDYYGMDVWGQGTTVTVSS
VL: DIQMTQSPSFLSASVGDRVTITCRASQGISSFLAWYQQKPGKAPKLLIYGASTLQSGVTSRFSGSGSGTEFTLTISSLQPEDFATYYCQRLDSYPPITFGQGTRLEIKR
Take B8: the “ELISA OD” value in assay [1] came to 3.9 OD. Binding in [2] was put at a Kd of 18.9 nM. Besides, in [3], the “PseudoNEUT (%)” value was determined as 100% and the “S-FuseNEUT (%)” value was 100%.

B9: Cv2.3194 (recombinant human IgG1) (antibody, V domains shown)
VH: EVQLVESGGGLIQPGGSLRLSCAASGITVTSNYMSWVRQAPGKGLEWVSVIYPGGSTFYADSVKGRFTISRDNSKNTLYLQMNSLRAEDTAVYYCARDLVVYGMDVWGQGTTVTVSS
VL: EIVLTQSPGTLSLSPGERATLSCRASQSVSSSYLAWYQQKPGQAPRLLIYGASSRATGIPGRFSGSGSGTDFTLTISRLEPEDFAIYYCQQGVTFGGGTKVEIKR
With B9, the OD405nm in assay [8] came to 3.4. In addition, the “ELISA OD” value in assay [1] came to 3.7 OD. Further, in [3], the “PseudoNEUT (%)” value was found to be 100% and the “S-FuseNEUT (%)” value was 100%. The molecule also registered an equilibrium dissociation constant (Kd) in [9] of 1.2 nM. The molecule further displayed a Kd in assay [10] of less than 0.001 nM. Also, in assay [11], the “Pseudoneutralization IC50” value came out at 18.9 ng/mL, the “Pseudoneutralization IC90” value is 241 ng/mL, the “S-Fuse neutralization IC50” value came out at 3 ng/mL and the “S-Fuse neutralization IC90” value was 9.8 ng/mL.

B10: Cv2.5213 (recombinant human IgG1) (antibody, V domains shown)
VH: EVQLVESGGGLIQPGGSLRLSCAASGFTVSSNYMSWVRQAPGKGLEWVSLIYSGGSTYYADSVKGRFTISRDNSKNTLYLQMNSLRAEDTAVYYCARDLNYYGMDVWGQGATVTVSS
VL: DIQMTQSPSSLSASVGDRVTITCRASQGISSYLAWYQQKPGKAPKLLIYAASTLQSGVPSRFSGSGSGTDFTLTISSLQPEDFATYYCQQLDSYSPFTFGPGTKVDIKR
Turning to B10, the “ELISA OD” value in assay [1] was determined as 3.5 OD. In [2], this molecule came in with a Kd of 520 nM. For the same molecule, in [3], the “PseudoNEUT (%)” value came out at 100% and the “S-FuseNEUT (%)” value turned out to be 96%.
